Target: human IL-18BP-His (human) (UniProt O95998)
Test: AlphaLISA detection of free IL-18BP

Chain of human IL-18BP-His (human) (O95998 31-194): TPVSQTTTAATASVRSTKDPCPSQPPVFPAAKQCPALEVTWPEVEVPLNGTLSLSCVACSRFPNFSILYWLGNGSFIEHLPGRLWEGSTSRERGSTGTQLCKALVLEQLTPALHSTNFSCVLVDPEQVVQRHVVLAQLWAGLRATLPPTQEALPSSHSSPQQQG

Substance | Kd
IL-18 polypeptide of SEQ ID NO: 37 (S55A) (from UniProt Q14116 37-193) (ligand) | 10.7 nM
IL-18 polypeptide C156 (V11I, C38A, N41A, K53A, C76A, C127A) (from UniProt Q14116 37-193) (ligand) | 18.5 nM
IL-18 polypeptide C158 (V11I, C38A, K53A, C76A, G108A, C127A) (from UniProt Q14116 37-193) (ligand) | 1.24 nM
IL-18 polypeptide C157 (V11I, C38A, K53A, C76A, C127A, D132A) (from UniProt Q14116 37-193) (ligand) | 13.7 nM
IL-18 polypeptide C166 (V11I, C38A, S55T, C76A, C127A) (from UniProt Q14116 37-193) (ligand) | 0.02 nM
IL-18 polypeptide C154 (V11I, E31A, D37A, C38A, K53A, C76A, C127A) (from UniProt Q14116 37-193) (ligand) | 2.12 nM
IL-18 polypeptide C150 (V11I, T34A, C38A, K53A, C76A, C127A) (from UniProt Q14116 37-193) (ligand) | 1.24 nM
IL-18 polypeptide C159 (V11I, C38A, K53A, C76A, H109A, C127A) (from UniProt Q14116 37-193) (ligand) | 0.55 nM
IL-18 polypeptide C142 (Y1M, E6K, V11I, C38A, K53A, T63A, C76A, C127A) (from UniProt Q14116 38-193) (ligand) | 2.25 nM
IL-18 polypeptide C145 (V11I, C38A, K53A, S55A, C76A, C127A) (from UniProt Q14116 37-193) (ligand) | 9.74 nM
IL-18 polypeptide C165 (V11I, C38A, S55R, C76A, C127A) (from UniProt Q14116 37-193) (ligand) | 0.15 nM
IL-18 polypeptide of SEQ ID NO: 48 (C38S, C68S, C76S, C127S, K70C) (from UniProt Q14116 37-193) (ligand) | 0.21 nM
IL-18 polypeptide of SEQ ID NO: 57 (E6K, C38S, K53A) (from UniProt Q14116 37-193) (ligand) | 50.2 nM
IL-18 polypeptide of SEQ ID NO: 55 (K53A, T63A, C38S, C68S, C76S, C127S, K70C) (from UniProt Q14116 37-193) (ligand) | 913 nM
IL-18 polypeptide of SEQ ID NO: 52 (E06K, T63A) (from UniProt Q14116 37-193) (ligand) | 0.83 nM
IL-18 polypeptide C176 (E6K, V11I, C38A, I49M, K53A, T63A, C76A, C127A) (from UniProt Q14116 37-193) (ligand) | 25.8 nM
IL-18 polypeptide of SEQ ID NO: 39 (E06K, K53A) (from UniProt Q14116 37-193) (ligand) | 130 nM
IL-18 polypeptide C144 (V11I, C38A, K53A, T63A, C76A, C127A) (from UniProt Q14116 37-193) (ligand) | 0.66 nM
IL-18 polypeptide C184 (E6R, V11I, C38A, K53A, T63A, C76A, C127A) (from UniProt Q14116 37-193) (ligand) | 5.46 nM
IL-18 polypeptide C151 (V11I, D35A, C38A, K53A, C76A, C127A) (from UniProt Q14116 37-193) (ligand) | 2.88 nM
IL-18 polypeptide C162 (K8E, V11I, C38A, C76A, Q103R, C127A) (from UniProt Q14116 37-193) (ligand) | 0.85 nM
IL-18 polypeptide C168 (V11I, C38A, C76A, S105K, C127A) (from UniProt Q14116 37-193) (ligand) | 0.05 nM
IL-18 polypeptide C152 (V11I, S36A, C38A, K53A, C76A, C127A) (from UniProt Q14116 37-193) (ligand) | 1.12 nM
IL-18 polypeptide of SEQ ID NO: 50 (E06K, K53A, T63A) (from UniProt Q14116 37-193) (ligand) | 340 nM
IL-18 polypeptide of SEQ ID NO: 42 (E06K, K53A, S55A, T63A) (from UniProt Q14116 37-193) (ligand) | 822 nM
IL-18 polypeptide C160 (V11I, C38A, K53A, C76A, D110A, C127A) (from UniProt Q14116 37-193) (ligand) | 0.71 nM
IL-18 polypeptide of SEQ ID NO: 59 (E6K, C38A, K53A) (from UniProt Q14116 37-193) (ligand) | 36 nM

The remaining substances from weak to strong by Kd, led by results:

Kd | Substance
969 nM | IL-18 polypeptide of SEQ ID NO: 35 (Y01G, F02A, E06K, M51G, K53A, D54A, S55A, T63A) (from UniProt Q14116 37-193) (ligand)
446 nM | IL-18 polypeptide of SEQ ID NO: 54 (E06K, K53A, C38S, C68S, C76S, C127S, K70C) (from UniProt Q14116 37-193) (ligand)
198 nM | IL-18 polypeptide of SEQ ID NO: 53 (K53A, T63A) (from UniProt Q14116 37-193) (ligand)
69.6 nM | IL-18 polypeptide of SEQ ID NO: 62 (E6K, C38A, K53A, C127A) (from UniProt Q14116 37-193) (ligand)
57.2 nM | IL-18 polypeptide C148 (F2A, V11I, C38A, K53A, C76A, C127A) (from UniProt Q14116 37-193) (ligand)
25.8 nM | IL-18 polypeptide C147 (V11I, C38A, K53A, D54A, C76A, C127A) (from UniProt Q14116 37-193) (ligand)
24.8 nM | IL-18 polypeptide of SEQ ID NO: 60 (E6K, C38Q, K53A) (from UniProt Q14116 37-193) (ligand)
12.3 nM | IL-18 polypeptide of SEQ ID NO: 40 (E06K, S55A) (from UniProt Q14116 37-193) (ligand)
8.86 nM | IL-18 polypeptide C143 (V11I, C38A, K53A, C76A, C127A) (from UniProt Q14116 37-193) (ligand)
4.55 nM | IL-18 polypeptide C153 (V11I, D37A, C38A, K53A, C76A, C127A) (from UniProt Q14116 37-193) (ligand)
2.59 nM | IL-18 polypeptide of SEQ ID NO: 51 (T63A) (from UniProt Q14116 37-193) (ligand)
0.74 nM | IL-18 polypeptide C155 (V11I, C38A, D40A, K53A, C76A, C127A) (from UniProt Q14116 37-193) (ligand)
0.14 nM | IL-18 polypeptide C174 (K8L, E6K, V11I, C38A, K53A, T63A, C76A, C127A) (from UniProt Q14116 37-193) (ligand)
0.13 nM | IL-18 polypeptide of SEQ ID NO: 38 (E06K) (from UniProt Q14116 37-193) (ligand)
0.06 nM | IL-18 polypeptide C161 (K8R, V11I, C38A, C76A, Q103E, C127A) (from UniProt Q14116 37-193) (ligand)
0.03 nM | IL-18 polypeptide of SEQ ID NO: 47 (C38S, C68S, C76S, C127S) (from UniProt Q14116 37-193) (ligand)

— patent US20250186597A1, “TARGETED IMMUNE ACTIVATION WITH IL-18 IMMUNOCYTOKINES” (BRIGHT PEAK THERAPEUTICS AG, priority 2023, published 2025)
